In US20210147504A1:

Experiments:
[1] = molecular target: rat ANP receptor (NPR-A) (rat) (UniProt P18910); assay: cell-based or functional assay
[2] = molecular target: rat CNP receptor (NPR-B) (rat) (UniProt P16067); assay: cell-based or functional assay
rat CNP receptor (NPR-B) (rat), sequence (P16067 17-1047): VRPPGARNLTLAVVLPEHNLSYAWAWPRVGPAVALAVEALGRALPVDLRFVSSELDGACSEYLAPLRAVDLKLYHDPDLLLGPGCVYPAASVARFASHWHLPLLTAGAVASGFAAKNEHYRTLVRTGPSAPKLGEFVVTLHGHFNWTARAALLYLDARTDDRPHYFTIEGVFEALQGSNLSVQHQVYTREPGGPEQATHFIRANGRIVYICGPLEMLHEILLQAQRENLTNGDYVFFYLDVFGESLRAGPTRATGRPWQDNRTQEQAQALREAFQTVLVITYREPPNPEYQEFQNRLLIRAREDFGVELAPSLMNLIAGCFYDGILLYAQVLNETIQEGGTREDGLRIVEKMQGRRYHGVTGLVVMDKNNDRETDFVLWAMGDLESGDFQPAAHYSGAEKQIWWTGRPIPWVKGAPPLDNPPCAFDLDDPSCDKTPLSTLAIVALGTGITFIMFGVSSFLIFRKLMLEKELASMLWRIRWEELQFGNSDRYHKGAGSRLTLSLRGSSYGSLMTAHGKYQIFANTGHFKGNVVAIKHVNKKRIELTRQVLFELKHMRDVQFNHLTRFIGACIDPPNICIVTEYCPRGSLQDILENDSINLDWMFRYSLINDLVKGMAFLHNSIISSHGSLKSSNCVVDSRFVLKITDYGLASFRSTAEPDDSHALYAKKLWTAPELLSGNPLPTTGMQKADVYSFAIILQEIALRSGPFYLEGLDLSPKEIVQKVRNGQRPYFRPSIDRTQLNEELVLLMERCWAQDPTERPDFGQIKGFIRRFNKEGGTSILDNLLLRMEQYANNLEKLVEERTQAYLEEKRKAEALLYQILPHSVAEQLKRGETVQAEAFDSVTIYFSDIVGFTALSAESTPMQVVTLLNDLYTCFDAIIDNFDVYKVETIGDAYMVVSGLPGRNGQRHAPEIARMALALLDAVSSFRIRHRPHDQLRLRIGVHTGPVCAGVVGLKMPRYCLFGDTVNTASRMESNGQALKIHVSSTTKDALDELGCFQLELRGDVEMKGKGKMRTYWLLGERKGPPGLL

rat ANP receptor (NPR-A) (rat), sequence (P18910 29-1057): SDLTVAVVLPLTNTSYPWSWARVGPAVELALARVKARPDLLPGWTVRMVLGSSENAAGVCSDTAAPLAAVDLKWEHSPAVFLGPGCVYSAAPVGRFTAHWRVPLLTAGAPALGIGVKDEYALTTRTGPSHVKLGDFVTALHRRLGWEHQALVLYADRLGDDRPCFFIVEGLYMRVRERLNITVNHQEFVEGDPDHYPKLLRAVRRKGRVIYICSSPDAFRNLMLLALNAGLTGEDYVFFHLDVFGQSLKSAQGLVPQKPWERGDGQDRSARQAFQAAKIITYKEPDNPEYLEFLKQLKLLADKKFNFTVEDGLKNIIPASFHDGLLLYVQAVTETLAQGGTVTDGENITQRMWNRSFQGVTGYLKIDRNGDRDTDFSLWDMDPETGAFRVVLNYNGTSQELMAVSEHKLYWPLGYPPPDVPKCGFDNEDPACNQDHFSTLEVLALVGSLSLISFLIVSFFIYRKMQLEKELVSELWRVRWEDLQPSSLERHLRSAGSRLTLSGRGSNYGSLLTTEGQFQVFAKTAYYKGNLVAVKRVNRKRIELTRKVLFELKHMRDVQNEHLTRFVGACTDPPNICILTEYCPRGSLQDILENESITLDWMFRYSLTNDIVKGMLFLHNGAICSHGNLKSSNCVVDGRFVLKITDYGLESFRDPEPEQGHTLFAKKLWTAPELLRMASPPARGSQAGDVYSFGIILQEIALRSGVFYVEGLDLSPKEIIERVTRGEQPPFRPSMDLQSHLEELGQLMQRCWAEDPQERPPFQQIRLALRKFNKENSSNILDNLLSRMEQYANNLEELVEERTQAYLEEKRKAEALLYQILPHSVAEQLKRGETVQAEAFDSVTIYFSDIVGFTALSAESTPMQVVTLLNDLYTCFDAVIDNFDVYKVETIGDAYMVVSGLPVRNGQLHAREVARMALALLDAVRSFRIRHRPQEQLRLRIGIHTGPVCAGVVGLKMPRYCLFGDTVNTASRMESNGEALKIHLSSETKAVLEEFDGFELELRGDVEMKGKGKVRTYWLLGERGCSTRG

Binder: SLRRSSCFGGRIDRIGAQSGLGCNSFRY (peptide, from a related filing) [ANP (Bachem, H-2100)]
- EC50, fluorescence signal of rat NPR-A cGMP reporter CHO cell line (GCaMP6/CNGA2) [1]: 0.22 nM

Binder: GLSKGCFGLKLDRIGSMSGLGC (peptide, from a related filing) [CNP (Bachem, H-1296)]
- EC50, luminescence signal of rat NPR-B cGMP reporter cell line [2]: 0.024 nM
